Data published in the RNAGym collection of RNA variant scans (doi:10.1073/pnas.2313332121).
This sample holds only a part of the variants without activity.

B1: TPR 5TU (parent)
chain: GGAUCUUCUCGAUCUAACAAAAAAGACAAAUCUGCCACAAAGCUUGAGAGCAUCUUCGGAUGCAGAGGCGGCAGCCUUCGGUGGCGCGAUAGCGCCAACGUUCUCAACUAUGACACGCAAAACGCGUGCUCCGUUGAAUGGAGUUUAUCAUG

Variants of: B1
Assay: polymerase ribozyme fitness, log enrichment relative to wild type (log ratio); higher = more active; in vitro selection for triplet polymerase activity
In short: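 Streptavidin-bead capture of gel-excised extended constructs, followed by RT-PCR, closed a single triplicate in vitro selection round. That round began by annealing PCR-built, transcribed mutant libraries of each subunit of a heterodimeric triplet polymerase ribozyme with a biotinylated primer, the partner subunit and triplets, then incubating them frozen at −7 °C. After Illumina sequencing of inputs and outputs, genotypes needed ≥10 input reads and ≥1 read per output. Fitness is the base-2 logarithm of genotype enrichment over wild-type enrichment, using inverse-variance-weighted replicate averages.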

Variant	polymerase ribozyme fitness (log ratio)
A60U A64C A89U C116G G133C A147C U148C	≤ -4.2
C27U C35U U53A U56G C57A C93A A113C A122G U146A C149G	≤ -4.2
U134C U144G	0.895
G65C G74C G88A C93G U146A	≤ -4.2
G58U G86A	-1.55
A17U A20G G42C C85U G128C	≤ -4.2
A28U A40C C75U G83U G133A	≤ -4.2
A16U A22U C38U C85U	-2.73
C99A A120C U148G	≤ -4.2
A30G C95G	-3.11
C27G C57U A91U C95A C131G U134G G140A	≤ -4.2
U31C C69G C96U G117U C118G	-1.49
U33C A37G C63A C87G U111G U151A	≤ -4.2
A3G U15G G25U A41C G83A U90A A98U C99G A113G	≤ -4.2
A26U A40C C76A G92C A121C	≤ -4.2
U56C C79U	-1.8
C5U A52U A64C G70C C85A C116G A122U C125U A150G	≤ -4.2
U78A G133A U139G	≤ -4.2
G11U C38A A40C U53A G58A	-3.76
A17U A37C C93G C96A	≤ -4.2
G94A	-0.622

Variant	polymerase ribozyme fitness (log ratio)
A40C G128U G143U	≤ -4.2
G50U A150G	-2.11
A41C G83U	-0.922
C103G A115C A137G C149G	≤ -4.2
U4G G11C A40U G50C G83U	≤ -4.2
C87A A107G A115U U135C A142C	≤ -4.2
G11U A21U G74C G92U	≤ -4.2
A12U A21U C87G C99U C125U	≤ -4.2
C36A U44A G62C C93U U135G U139C U144A	≤ -4.2
A3C U6G A23U A39G U44A A89G C116G	≤ -4.2
U55G C87A C93A C99U U134A	≤ -4.2
C10A C63U G67A U77C G92A U127C U135G	≤ -4.2
U82C U104G G117U	0.147
U13G U111G	≤ -4.2
G65C G81U G94C C105G A115G C129U A138C	≤ -4.2
A28G A29U	-3.79
G59A U127A	-3.81
U6A A106G G117C A147U	-0.278
A21U A64C U145G	≤ -4.2
A52G C87U	-1.3
A49C A64U C87A U104G G143A	≤ -4.2

Variant	polymerase ribozyme fitness (log ratio)
G65C C85U	-4.04
C57G C69A	-2.56
G65A C76A A122U	-4.06
A16G A30U U44A G81A C95U C125G	≤ -4.2
G34U C99G A106U U127A C132U U139C	≤ -4.2
A20C A22C C43U G83C	≤ -4.2
A41C U101G	-0.344
G88U	-3.89
U6G C35G C95A C99U U102A U111C	≤ -4.2
A30G C85U	-3.06
C10G A52C G70U C85G G117U	≤ -4.2
C32U A37U U56C C95U U145G U148G	≤ -4.2
G11A A110G	-3.76
G46U A91C C105U C114U U146G	≤ -4.2
A41U C85G G126A	-2.76
C72G U101G	≤ -4.2
C96A A115U	-2.29
A12C G46U A113U C118U	-3.95
C76U A119C C123U	0.258
A21G C57A G81C A97G U101C U135C	-1.99
A24U A40C U55A A60G C75G C96G U104G	≤ -4.2

Variant	polymerase ribozyme fitness (log ratio)
C93U C125U	-1.43
G25U A29U G62U C85G A142C	≤ -4.2
A26C A29U G126U A138C	≤ -4.2
A28C U45A G88A C96A G100A G143A	≤ -4.2
A40U G152U	-3.71
A20G A21C G92A C108G	≤ -4.2
C75A U90C C95U A107G U127G G141C	≤ -4.2
G25A U56A	-1.67
C43U U82G U101G	-4.04
A40U G80A C87A U127G A147C	≤ -4.2
C118G	-1.01
A30G U33G U82C C103A U144A	≤ -4.2
G83A A89G U109G U130G C132G	≤ -4.2
U31G U53A A91G A122G	-3.62
A20U G62C G94A	-3.04
A24G A91U	≤ -4.2
A19U G143U	-2.25
C35U U135G	-3.62
A26G A73U C85A U151G	≤ -4.2
A37C A40G A52U A60G G70C G86U A119C	≤ -4.2
A40C U134G A142G U145A	-3.46
